± gives the standard deviation of the averaged measurements.
How the values were obtained:
[1] = system: Saccharomyces cerevisiae; test: protein stability index of tFT-peptide fusion (C-terminal peptide) (PSI (0-1 scale)); higher = more stable (slower turnover)
Protocol: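 MPS profiling in S. cerevisiae of the tFT-X12 degron library: putative degron peptides plus stable controls, 12 aa, fused to the C-terminus of a sfGFP-mCherry timer. Cells are FACS-sorted into 8 mCherry/sfGFP bins and deep-sequenced. PSI runs from 0 (unstable) to 1 (stable). Backgrounds are wild type, das1Δ and doa10Δ at 30 °C, and wild type, das1Δ, cdc34-1 and cdc53-1 at 37 °C; 2-3 technical replicates each.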

[2] = system: Saccharomyces cerevisiae; test: as above; conditions: genetic background: wild type; temperature: 30 C
[3] = genetic background: cdc34-1, temperature: 37 C
[4] = genetic background: cdc53-1, temperature: 37 C
[5] = genetic background: das1 deletion, temperature: 30 C
[6] = genetic background: das1 deletion, temperature: 37 C
[7] = genetic background: doa10 deletion, temperature: 30 C
[8] = genetic background: wild type, temperature: 30 C
[9] = genetic background: wild type, temperature: 37 C
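Also: PSI is a weighted mean of sequencing reads over stability bins, variants kept only with over 10 reads, mCherry proximal and sfGFP distal, peptide attached via GGGS linker.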

| Sequence | protein stability index [2] | also measured |
| --- | --- | --- |
| ASSSPAPYAPYT | 0.635 ± 0.23 | protein stability index [1, 3]: 0.7006 ± 0.0052; protein stability index [1, 4]: 0.7559 ± 0.0043; protein stability index [1, 5]: 0.647 ± 0.031; protein stability index [1, 6]: 0.76 ± 0.029; protein stability index [1, 7]: 0.634 ± 0.03; protein stability index [1, 8]: 0.642 ± 0.025; protein stability index [1, 9]: 0.744 ± 0.017 |
| ATAVMILCFRWC | 0.419 ± 0.053 | protein stability index [1, 3]: 0.392 ± 0.0051; protein stability index [1, 4]: 0.492 ± 0.018; protein stability index [1, 5]: 0.329 ± 0.041; protein stability index [1, 6]: 0.526 ± 0.013; protein stability index [1, 7]: 0.2872 ± 0.0016; protein stability index [1, 8]: 0.308 ± 0.015; protein stability index [1, 9]: 0.4711 ± 0.00051 |
| FGWLELVWFDLG |  | protein stability index [1, 3]: 0.646 ± 0.0098; protein stability index [1, 4]: 0.684 ± 0.031; protein stability index [1, 5]: 0.525 ± 0.03; protein stability index [1, 6]: 0.703 ± 0.033; protein stability index [1, 7]: 0.51 ± 0.034; protein stability index [1, 8]: 0.531 ± 0.024; protein stability index [1, 9]: 0.68 ± 0.039 |
| GIFYVRTIWSCG |  | protein stability index [1, 3]: 0.232 ± 0.025; protein stability index [1, 4]: 0.348 ± 0.0043; protein stability index [1, 5]: 0.192 ± 0.014; protein stability index [1, 6]: 0.3813 ± 0.0011; protein stability index [1, 7]: 0.1446 ± 0.00063; protein stability index [1, 8]: 0.17 ± 0.017; protein stability index [1, 9]: 0.332 ± 0.011 |
| GRWGGYVGREWG |  | protein stability index [1, 3]: 0.497 ± 0.045; protein stability index [1, 4]: 0.522 ± 0.025; protein stability index [1, 5]: 0.442 ± 0.0056; protein stability index [1, 6]: 0.482 ± 0.017; protein stability index [1, 7]: 0.4402 ± 0.00068; protein stability index [1, 8]: 0.458 ± 0.0072; protein stability index [1, 9]: 0.461 ± 0.017 |
| GSMGGVGVLGGD |  | protein stability index [1, 3]: 0.544 ± 0.071; protein stability index [1, 4]: 0.6535 ± 0.0059; protein stability index [1, 5]: 0.467 ± 0.0086; protein stability index [1, 6]: 0.5571 ± 0.0043; protein stability index [1, 7]: 0.486 ± 0.018; protein stability index [1, 8]: 0.476 ± 0.013; protein stability index [1, 9]: 0.552 ± 0.018 |
| IGWGGGTWVKMG |  | protein stability index [1, 3]: 0.544 ± 0.0058; protein stability index [1, 4]: 0.7335 ± 0.0016; protein stability index [1, 5]: 0.654 ± 0.0079; protein stability index [1, 6]: 0.769 ± 0.015; protein stability index [1, 7]: 0.0923 ± 0.022; protein stability index [1, 8]: 0.106 ± 0.023; protein stability index [1, 9]: 0.166 ± 0.038 |
| LEDVLFVMVINI |  | protein stability index [1, 3]: 0.4551 ± 0.0027; protein stability index [1, 4]: 0.542 ± 0.028; protein stability index [1, 5]: 0.308 ± 0.038; protein stability index [1, 6]: 0.549 ± 0.035; protein stability index [1, 7]: 0.346 ± 0.012; protein stability index [1, 8]: 0.292 ± 0.025; protein stability index [1, 9]: 0.49 ± 0.03 |
| LLSLLLDPLLCL |  | protein stability index [1, 3]: 0.582 ± 0.024; protein stability index [1, 4]: 0.624 ± 0.0029; protein stability index [1, 5]: 0.522 ± 0.026; protein stability index [1, 6]: 0.634 ± 0.015; protein stability index [1, 7]: 0.521 ± 0.022; protein stability index [1, 8]: 0.534 ± 0.024; protein stability index [1, 9]: 0.6166 ± 0.0013 |
| SDGGVVRGGCRG |  | protein stability index [1, 3]: 0.592 ± 0.083; protein stability index [1, 4]: 0.787 ± 0.012; protein stability index [1, 5]: 0.519 ± 0.061; protein stability index [1, 6]: 0.714 ± 0.1; protein stability index [1, 7]: 0.549 ± 0.081; protein stability index [1, 8]: 0.512 ± 0.046; protein stability index [1, 9]: 0.598 ± 0.016 |
| SVYLYFQVVAYG |  | protein stability index [1, 3]: 0.0652 ± 0.021; protein stability index [1, 4]: 0.0815 ± 0.058; protein stability index [1, 5]: 0.0877 ± 0.049; protein stability index [1, 6]: 0.198 ± 0.02; protein stability index [1, 7]: 0.0536 ± 0.021; protein stability index [1, 8]: 0.0724 ± 0.025; protein stability index [1, 9]: 0.156 ± 0.0094 |
| VWVVRGFLGFGG |  | protein stability index [1, 3]: 0.532 ± 0.068; protein stability index [1, 4]: 0.526 ± 0.029; protein stability index [1, 5]: 0.4302 ± 0.0014; protein stability index [1, 6]: 0.457 ± 0.012; protein stability index [1, 7]: 0.437 ± 0.0075; protein stability index [1, 8]: 0.438 ± 0.014; protein stability index [1, 9]: 0.4411 ± 0.00055 |
| WSGGWAGGMLNE | 0.641 ± 0.027 |  |
| WSIGGKSFVGIA | 0.676 ± 0.031 |  |
| WSISKSTWGPIG | 0.673 ± 0.023 |  |
| WSQGAIDRLDLS | 0.641 ± 0.13 |  |
| WSRRGGWEKYGV | 0.676 ± 0.032 |  |
| WSSSVGIKGAWF | 0.707 ± 0.022 |  |
| WSVGRVGGCGAR | 0.704 ± 0.052 |  |
| WTCMNRRMREED | 0.739 ± 0.072 |  |
| WTNRVPLYALPT | 0.657 ± 0.0081 |  |
| WVGAGGGSGYGR | 0.677 ± 0.018 |  |
| WVGKCLCRGLCD | 0.668 ± 0.0096 |  |
| WVMREIVFGSLY | 0.698 ± 0.017 |  |
| WVNWRWRAVVPG | 0.6188 ± 0.0025 |  |

| Sequence | protein stability index [2] | also measured |
| --- | --- | --- |
| WVSSRSSVVARG | 0.653 ± 0.043 |  |
| WVTQHAMEVGRI | 0.712 ± 0.084 |  |
| WVVGGVRGVWGA | 0.729 ± 0.011 |  |
| WWAERCLGGGRG | 0.744 ± 0.018 |  |
| WWAGGCGGERGG | 0.686 ± 0.018 |  |
| WWGAKLDGKVSE | 0.813 ± 0.0089 |  |
| WWGCVGRVGVEG | 0.726 ± 0.1 |  |
| WWGGGVRGGMGG | 0.7578 ± 0.002 |  |
| WWGRWGASVGRG | 0.686 ± 0.033 |  |
| WWRGSVWHREVA | 0.701 ± 0.0088 |  |
| WYGPKLVGGSIV | 0.722 ± 0.12 |  |
| WYITVMSHFNET | 0.753 ± 0.009 |  |
| WYWGGWMRGCGW | 0.75 ± 0.048 |  |
| YAGPCRRHSGGC | 0.679 ± 0.082 |  |
| YALLLPRSVFQF | 0.517 ± 0.038 |  |
| YASDGNSRLRAN | 0.691 ± 0.02 |  |
| YASKQNPKPPSP | 0.682 ± 0.039 |  |
| YASLSGSRYRPG | 0.62 ± 0.051 |  |
| YCGGWCGGWEIG | 0.709 ± 0.0075 |  |
| YCGGWWGGWEIG | 0.719 ± 0.0036 |  |
| YCHTSISPNSHL | 0.787 ± 0.096 |  |
| YCLLGHIYKPLS | 0.679 ± 0.011 |  |
| YCRVRYKKSVLR | 0.694 ± 0.015 |  |
| YCTVDECWGRWH | 0.709 ± 0.08 |  |
| YCWGYVVARPSV | 0.695 ± 0.017 |  |

| Sequence | protein stability index [2] | also measured |
| --- | --- | --- |
| YEMTGHVVTHEI | 0.69 ± 0.075 |  |
| YFGSHLILSRAT | 0.665 ± 0.11 |  |
| YFNNVFQVAGGF | 0.639 ± 0.025 |  |
| YGAGLRIGQFRC | 0.747 ± 0.1 |  |
| YGCPSSSSVLDG | 0.812 ± 0.11 |  |
| YGGRQRCRGRVE | 0.825 ± 0.16 |  |
| YGKENGNRNTGR | 0.621 ± 0.014 |  |
| YGRANATHLGRR | 0.661 ± 0.005 |  |
| YHARPQALPSRP | 0.658 ± 0.055 |  |
| YHMNSSLLCLLW | 0.631 ± 0.032 |  |
| YIGGMRSHYASP | 0.734 ± 0.12 |  |
| YIRSKPASDQFA | 0.7093 ± 0.00062 |  |
| YIVPAGGGLVSG | 0.642 ± 0.096 |  |
| YKMTFVRGQGYE | 0.69 ± 0.041 |  |
| YKNDNDKCIQMR | 0.678 ± 0.011 |  |
| YKPLKNKDEEMD | 0.6127 ± 0.00088 |  |
| YLAYHVAAPGPV | 0.686 ± 0.015 |  |
| YLCEATFLLTWL | 0.618 ± 0.024 |  |
| YLGCSLAMAFSL | 0.6278 ± 0.0054 |  |
| YLLLAFQRPTPG | 0.694 ± 0.019 |  |
| YLLPSTPPPRIP | 0.6912 ± 0.0048 |  |
| YLQLALFHSIPH | 0.738 ± 0.053 |  |
| YLSLPTSISLSS | 0.693 ± 0.016 |  |
| YPLPFRHASIPF | 0.606 ± 0.096 |  |
| YPLPPLFLPLLL | 0.675 ± 0.046 |  |

| Sequence | protein stability index [2] | also measured |
| --- | --- | --- |
| YPPLTNNQINES | 0.69 ± 0.015 |  |
| YPPPPPLAPPRP | 0.747 ± 0.14 |  |
| YPPREEPREDLA | 0.656 ± 0.026 |  |
| YPSTPPPPPHPA | 0.687 ± 0.1 |  |
| YPTTSWNPARSV | 0.692 ± 0.12 |  |
| YQSLVSIDLGFS | 0.745 ± 0.034 |  |
| YRLAPGCSFHPT | 0.666 ± 0.028 |  |
| YRPPSPPSPLPP | 0.674 ± 0.007 |  |
| YSCLGFELWGKG | 0.632 ± 0.067 |  |
| YSLQLSTVCCRL | 0.614 ± 0.019 |  |
| YSLSDVAVLAST | 0.629 ± 0.045 |  |
| YSLTFSIHSSCP | 0.697 ± 0.033 |  |
| YSLYVHPPNLYQ | 0.6604 ± 0.0015 |  |
| YSRSSFSIPPPF | 0.7239 ± 0.003 |  |
| YSSLPPAFPNRS | 0.734 ± 0.1 |  |
| YSVPDFIVVSHL | 0.797 ± 0.12 |  |
| YSWRAKGVKRLR | 0.659 ± 0.029 |  |
| YTDVWLPARGSG | 0.689 ± 0.056 |  |
| YTKIIPIFPEQL | 0.631 ± 0.03 |  |
| YVCCMEGFLKPL | 0.619 ± 0.043 |  |
| YVFPYLLRAIPF | 0.601 ± 0.095 |  |
| YVLITGSTIPDN | 0.694 ± 0.026 |  |
| YVVCMNKSSFRG | 0.769 ± 0.042 |  |
| YWVPPDTIKSAI | 0.7362 ± 0.0032 |  |
